Test results taken from publication PMC11435379.
Where “and” joins values, the source holds several entries; their conditions need not be identical. Identical values can stand only once.

Key:
[1] = biological target: Cetuximab (Erbitux, 5 mg/mL); assay: SEC; SE/UHPLC-UV as a10; sample exposed to accelerated light (250 W/m^2) for 24 h
[2] = biological target: Cetuximab (Erbitux, 5 mg/mL); assay: SEC; SE/UHPLC-UV as a10; sample exposed to daylight for 24 h

stoichiometry N [1]: 3 and 8 and 5 | stoichiometry N [2]: 3
Substance: Cetuximab (Erbitux, 5 mg/mL) (antibody)
